Publication doi:10.1101/2021.05.26.445723 (bioRxiv, 2021)

Target: GST-Sir3^SaID (S. cerevisiae, UniProt P06701 531-723)
Experiment: pull-down

Sequence of GST-Sir3^SaID (P06701 531-723): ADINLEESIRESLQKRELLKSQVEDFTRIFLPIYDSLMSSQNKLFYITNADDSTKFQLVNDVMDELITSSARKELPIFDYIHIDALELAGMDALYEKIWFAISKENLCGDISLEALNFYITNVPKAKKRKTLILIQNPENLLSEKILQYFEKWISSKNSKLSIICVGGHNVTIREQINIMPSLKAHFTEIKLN

binding result: binds
B1: Sae2^C (purified) (domain or fragment, S. cerevisiae, UniProt P46946 173-345, looked up)
chain: ENPESTSPNLYKNVKDNFLFDFNTNPLTKRAWILEDFRPNEDIAPVKRGRRKLERFYAQVGKPEDSKHRSLSVVIESQNSDYEFAFDNLRNRSKSPPGFGRLDFPSTQEGNEDKKKSQEIIRRKTKYRFLMASNNKIPPYEREYVFKREQLNQIVDDGCFFWSDKLLQIYARC
